The text below walks through data of patent US20220154156A1, “PROTEINS AND METHODS FOR DISRUPTING BACTERIAL COMMUNICATION” (REGENTS OF THE UNIVERSITY OF MINNESOTA, priority 2019, published 2022).

In experiment [1] the test system is corrosion tubercles on steel coupons. Put plainly: Biocorrosion of coated steel coupons in Duluth-Superior Harbor water, 8 weeks. Also noted: concentration or dose not given beside the values. Particulars: silica gel coating, two months in DSH water. The protocol: The steel coupons were washed with soap water, lightly brushed for a few seconds with a test tube brush, and then rinsed with Milli-Q water to remove any loose material. Each coupon was designated with a unique number and weighed before being randomly assigned to a specific experimental treatment.
Each compound or enzyme was added to 5 ml of the silica gel matrix to develop different coating treatments. These coatings were applied by dipping coupons into the appropriate gel mixture for 1 minute, and then the coating on the coupon surface was air-dried at room temperature for 2 hours.
Six treatments and three controls were investigated for corrosion rate and changes in bacterial communities (Table 10). Each treatment or control contained three replicate steel coupons. After the triplicate steel coupons were coated with each biochemical, enzyme or bacterial treatment, they were incubated in experimental microcosms constructed from 10-gallon glass aquaria (Aqueon Glass, 50.8 cm×25.4 cm×30.5 cm) (FIG. 24). Each microcosm was equipped with an aquarium pump (Aquarium Systems Mini-Jet 404) to constantly circulate the water (˜2 L hr−1), and covered with a piece of acrylic with one corner cut out to allow gas exchange. The coupons were hold with plastic holders and immersed in water taken from the DSH for 8 weeks and then recovered for analyses.
The coupons in each treatment was photographed by the end of the experiment. Biocorrosion was evaluated by the number and coverage of corrosion tubercles, and also by imaging of coupon surfaces with an environmental scanning electron microscope (ESEM). The coupon images were captured with DSLR camera immediately after being removed from the harbor water, and then tubercle numbers and total area in digital images were measured using the analyze menu within ImageJ software (NIH, Bethesda, Md., USA). Surface roughness measurements were also made after the exposed coupons were cleaned with ASTM G1-90 iron and steel chemical cleaning procedure (2 min in 37% HCl, 50 g/L SnCl2). A Hitachi TM-3030 ESEM was used to view details of the cleaned coupon surface and the 3D-View software was used to generate surface roughness measurements (SRa). Statistics analysis (T-tests) of the tubercle numbers, coverage and surface roughness were performed using Microsoft Excel software.

The test system of experiment [2] is biofilm of complex soil microbial community. Put plainly: Biofilm microbial community analysis (16S, MiSeq). Type of experiment: cell-based. The protocol:
DNA extractions were carried out on biofilms. Submerged wells from the strip-well plates were drained of excess cells/water. Biofilm was scraped from the polypropylene well and put into Powerbead® tubes for DNA extraction (MoBio Powersoil® DNA Extraction Kit). Purified DNA samples were submitted to the University of Minnesota's Genomics Center for 16S rRNA sequencing. Using the Genomics Center platform, each sample underwent amplification, indexing, normalization, pooling, size selection, and final QC for sequencing. The V4 region of the 16s rRNA gene was amplified using primer 515f (5′-GTGCCAGCMGCCGCGGTAA-3′ (SEQ ID NO:14)). After the library preparation steps, it was confirmed all samples passed QC and were submitted for sequencing.
All samples were processed using Mothur v1.35.1. For each sample, 1,250 sequences were used for final analyses. […] Analysis of similarity (ANOSIM) and analysis of molecular variances (AMOVA) were used to evaluate the beta diversity (community composition) among samples using Bray-Curtis dissimilarity matrices (BC) (Bray & Curtis 1957; Clarke 1993). Ordination of Bray-Curtis matrices was performed using principal coordinate analysis (PCoA) to further analyze diversity of sample days throughout the tank (Anderson & Willis 2003). […] All of alpha values evaluated at α=0.05.

The test system of experiment [3] is P. syringae pv. Phaseolicola. Put plainly: Kidney bean plant infection. Particulars: sprayed, 14 days, multiple inoculations. The class given is in vivo. The protocol:
Plants were inoculated twice (day 1 and day 6) with 5×10^6 cells P. syringae pv. Phaseolicola. Left, leaves were sprayed with enzyme buffer after the fist inoculation, for right, leaves were sprayed with buffer containing the QQ lactonase (0.5 mg/mL). Pictures were taken at day 14.
Kidney bean plants were grown and infected with P. syringae pv. Phaseolicola.

Experiment [4] concerns Xanthomonas translucens pv. undulosa LMG892. The experiment can be described thus: Wheat leaf infection. Type of experiment: in vivo. Particulars: single spraying of 1 mL, 10 mg/mL. The protocol:
FIG. 30A-30F show control of plant infections by a single spraying of 1 mL of lactonase solution (10 mg/mL) on plant leaves and crop. (A) and (B) Soft rot potato assay.
Specifically, we could establish infection systems for corn, wheat, and barley plants, and a crop infection system for potato (tubers and leaves).

B1: SsoPox W263I: improved variant of the hyperthermostable lactonase SsoPox from Sulfolobus solfataricus, exhibiting higher catalytic rates (protein, UniProt Q97VT7 1-314, looked up, variant W263I)
Aryldialkylphosphatase: MRIPLVGKDSIESKDIGFTLIHEHLRVFSEAVRQQWPHLYNEDEEFRNAVNEVKRAMQFGVKTIVDPTVMGLGRDIRFMEKVVKATGINLVAGTGIYIYIDLPFYFLNRSIDEIADLFIHDIKEGIQGTLNKAGFVKIAADEPGITKDVEKVIRAAAIANKETKVPIITHSNAHNNTGLEQQRILTEEGVDPGKILIGHLGDTDNIDYIKKIADKGSFIGLDRYGLDLFLPVDKRNETTLRLIKDGYSDKIMISHDYCCTIDIGTAKPEYKPKLAPRWSITLIFEDTIPFLKRNGVNEEVIATIFKENPKKFFS
With B1, in experiment [1], the “reduction of the coverage of corrosion tubercles” value is on record as 50% and the “reduction of the number (formation) of corrosion tubercles” value came to 50%. Also, in experiment [2] (day 7, lactonase 1×), the “Aeromonas share of the biofilm community” value is reported as 79.68%. Further, the “Aeromonas share of the biofilm community” value in experiment [2] (day 7, lactonase 2×) came to 42.16%. Also, the “protection of kidney bean plant” value in experiment [3] is recorded as “protected the plant from infection”. Moreover, the “leaf spots on wheat leaves” value in experiment [4] is reported as “Absence of leaf spots”.
